In FireProtDB (doi:10.1093/protein/12.10.841):

Settings: Homo sapiens; pH 2.7; Thermal; DSC; glycine 0.05 M; reversible: yes; whole UniProt chain shown

B1: Lysozyme C wild type, P61626 (protein)
chain: MKALIVLGLVLLSVTVQGKVFERCELARTLKRLGMDGYRGISLANWMCLAKWESGYNTRATNYNAGDRSTDYGIFQINSRYWCNDGKTPGAVNACHLSCSALLQDNIADAVACAKRVVRDPQGIRAWVAWRNRCQNRDVRQYVQGCGV
Tm: 64.9 °C | heat capacity change of unfolding: 1.58 kcal/mol/K | unfolding enthalpy (calorimetric): 114 kcal/mol | unfolding enthalpy (van 't Hoff): 120 kcal/mol
